Results as given in publication PMC2896254 (Biopolymers, 2009).
Read-outs that look alike come from different tables or passages of the source. The star is where a group is joined. MBP = 4-(maleimido)benzophenone, alkylating the Cys, O=C(c1ccccc1)c1ccc(N2C(=O)CC(*)C2=O)cc1; Biotin = O=C1N[C@H]2[C@H](CS[C@H]2CCCCC(=O)*)N1

Tests used:
Assay in all cases: pull-down
[1] = biological target: T1, Wild-type full-length Ffh carrying an N-terminal deca-His tag (E. coli, UniProt P0AGD7 1-453)
T1 sequence (looked up): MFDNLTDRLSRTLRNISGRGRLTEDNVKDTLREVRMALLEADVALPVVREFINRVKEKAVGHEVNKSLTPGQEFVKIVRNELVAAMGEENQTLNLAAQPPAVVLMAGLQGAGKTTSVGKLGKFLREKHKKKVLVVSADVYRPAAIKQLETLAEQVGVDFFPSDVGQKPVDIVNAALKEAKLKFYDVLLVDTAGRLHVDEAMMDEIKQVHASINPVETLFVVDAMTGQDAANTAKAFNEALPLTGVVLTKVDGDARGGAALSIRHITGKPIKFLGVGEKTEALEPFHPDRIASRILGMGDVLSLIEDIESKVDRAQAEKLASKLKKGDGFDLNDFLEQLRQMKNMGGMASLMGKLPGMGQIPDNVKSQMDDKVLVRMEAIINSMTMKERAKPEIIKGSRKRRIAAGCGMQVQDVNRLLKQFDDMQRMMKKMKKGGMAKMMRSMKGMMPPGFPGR

[2] = biological target: T2, His-tagged NG domain of Ffh (residues M1 to V300) (E. coli, UniProt P0AGD7 1-300)
T2 sequence (looked up): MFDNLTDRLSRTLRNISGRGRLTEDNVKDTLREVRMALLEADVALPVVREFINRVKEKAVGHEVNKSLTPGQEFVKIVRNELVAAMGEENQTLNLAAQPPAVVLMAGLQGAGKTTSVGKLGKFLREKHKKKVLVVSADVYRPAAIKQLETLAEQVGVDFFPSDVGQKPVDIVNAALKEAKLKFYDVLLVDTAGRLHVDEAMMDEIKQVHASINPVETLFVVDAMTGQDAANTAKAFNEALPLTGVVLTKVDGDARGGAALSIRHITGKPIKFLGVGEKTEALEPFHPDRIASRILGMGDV

[3] = biological target: T3, His-tagged M domain of Ffh (M297 to R453) (E. coli, UniProt P0AGD7 297-453)
T3 sequence (looked up): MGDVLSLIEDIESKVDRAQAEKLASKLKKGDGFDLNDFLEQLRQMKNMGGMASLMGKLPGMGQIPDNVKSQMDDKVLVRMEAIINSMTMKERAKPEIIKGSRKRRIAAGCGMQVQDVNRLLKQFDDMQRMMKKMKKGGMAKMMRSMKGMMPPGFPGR

[4] = biological target: T1, Wild-type full-length Ffh carrying an …; remark: listed apart in the source

B1: BioPhoAC10 (peptide)
peptide: Biotin-MKQKKKLALCLLLLLLTPVTKA-NH2
SMILES: CSCC[C@H](NC(=O)CCCC[C@@H]1SC[C@@H]2NC(=O)N[C@@H]21)C(=O)N[C@@H](CCCCN)C(=O)N[C@@H](CCC(N)=O)C(=O)N[C@@H](CCCCN)C(=O)N[C@@H](CCCCN)C(=O)N[C@@H](CCCCN)C(=O)N[C@@H](CC(C)C)C(=O)N[C@@H](C)C(=O)N[C@@H](CC(C)C)C(=O)N[C@@H](CS)C(=O)N[C@@H](CC(C)C)C(=O)N[C@@H](CC(C)C)C(=O)N[C@@H](CC(C)C)C(=O)N[C@@H](CC(C)C)C(=O)N[C@@H](CC(C)C)C(=O)N[C@@H](CC(C)C)C(=O)N[C@H](C(=O)N1CCC[C@H]1C(=O)N[C@H](C(=O)N[C@H](C(=O)N[C@@H](CCCCN)C(=O)N[C@@H](C)C(N)=O)[C@@H](C)O)C(C)C)[C@@H](C)O
- binding result [1]: binds

B2: BioPhoAC11 (peptide)
peptide: Biotin-MKQKKKLALLCLLLLLTPVTKA-NH2
SMILES: CSCC[C@H](NC(=O)CCCC[C@@H]1SC[C@@H]2NC(=O)N[C@@H]21)C(=O)N[C@@H](CCCCN)C(=O)N[C@@H](CCC(N)=O)C(=O)N[C@@H](CCCCN)C(=O)N[C@@H](CCCCN)C(=O)N[C@@H](CCCCN)C(=O)N[C@@H](CC(C)C)C(=O)N[C@@H](C)C(=O)N[C@@H](CC(C)C)C(=O)N[C@@H](CC(C)C)C(=O)N[C@@H](CS)C(=O)N[C@@H](CC(C)C)C(=O)N[C@@H](CC(C)C)C(=O)N[C@@H](CC(C)C)C(=O)N[C@@H](CC(C)C)C(=O)N[C@@H](CC(C)C)C(=O)N[C@H](C(=O)N1CCC[C@H]1C(=O)N[C@H](C(=O)N[C@H](C(=O)N[C@@H](CCCCN)C(=O)N[C@@H](C)C(N)=O)[C@@H](C)O)C(C)C)[C@@H](C)O
- binding result [2]: binds
- binding result [1]: binds
- binding result [3]: binds

B3: BioPhoAC11-BP (peptide)
peptide: Biotin-MKQKKKLALLC(MBP)LLLLLTPVTKA-NH2
SMILES: CSCC[C@H](NC(=O)CCCC[C@@H]1SC[C@@H]2NC(=O)N[C@@H]21)C(=O)N[C@@H](CCCCN)C(=O)N[C@@H](CCC(N)=O)C(=O)N[C@@H](CCCCN)C(=O)N[C@@H](CCCCN)C(=O)N[C@@H](CCCCN)C(=O)N[C@@H](CC(C)C)C(=O)N[C@@H](C)C(=O)N[C@@H](CC(C)C)C(=O)N[C@@H](CC(C)C)C(=O)N[C@@H](CSC1CC(=O)N(c2ccc(C(=O)c3ccccc3)cc2)C1=O)C(=O)N[C@@H](CC(C)C)C(=O)N[C@@H](CC(C)C)C(=O)N[C@@H](CC(C)C)C(=O)N[C@@H](CC(C)C)C(=O)N[C@@H](CC(C)C)C(=O)N[C@H](C(=O)N1CCC[C@H]1C(=O)N[C@H](C(=O)N[C@H](C(=O)N[C@@H](CCCCN)C(=O)N[C@@H](C)C(N)=O)[C@@H](C)O)C(C)C)[C@@H](C)O
- binding result [1]: binds

B4: BioPhoAC12 (peptide)
peptide: Biotin-MKQKKKLALLLCLLLLTPVTKA-NH2
SMILES: CSCC[C@H](NC(=O)CCCC[C@@H]1SC[C@@H]2NC(=O)N[C@@H]21)C(=O)N[C@@H](CCCCN)C(=O)N[C@@H](CCC(N)=O)C(=O)N[C@@H](CCCCN)C(=O)N[C@@H](CCCCN)C(=O)N[C@@H](CCCCN)C(=O)N[C@@H](CC(C)C)C(=O)N[C@@H](C)C(=O)N[C@@H](CC(C)C)C(=O)N[C@@H](CC(C)C)C(=O)N[C@@H](CC(C)C)C(=O)N[C@@H](CS)C(=O)N[C@@H](CC(C)C)C(=O)N[C@@H](CC(C)C)C(=O)N[C@@H](CC(C)C)C(=O)N[C@@H](CC(C)C)C(=O)N[C@H](C(=O)N1CCC[C@H]1C(=O)N[C@H](C(=O)N[C@H](C(=O)N[C@@H](CCCCN)C(=O)N[C@@H](C)C(N)=O)[C@@H](C)O)C(C)C)[C@@H](C)O
- binding result [4]: binds

B5: BioPhoAC13 (peptide)
peptide: Biotin-MKQKKKLALLLLCLLLTPVTKA-NH2
SMILES: CSCC[C@H](NC(=O)CCCC[C@@H]1SC[C@@H]2NC(=O)N[C@@H]21)C(=O)N[C@@H](CCCCN)C(=O)N[C@@H](CCC(N)=O)C(=O)N[C@@H](CCCCN)C(=O)N[C@@H](CCCCN)C(=O)N[C@@H](CCCCN)C(=O)N[C@@H](CC(C)C)C(=O)N[C@@H](C)C(=O)N[C@@H](CC(C)C)C(=O)N[C@@H](CC(C)C)C(=O)N[C@@H](CC(C)C)C(=O)N[C@@H](CC(C)C)C(=O)N[C@@H](CS)C(=O)N[C@@H](CC(C)C)C(=O)N[C@@H](CC(C)C)C(=O)N[C@@H](CC(C)C)C(=O)N[C@H](C(=O)N1CCC[C@H]1C(=O)N[C@H](C(=O)N[C@H](C(=O)N[C@@H](CCCCN)C(=O)N[C@@H](C)C(N)=O)[C@@H](C)O)C(C)C)[C@@H](C)O
- binding result [4]: binds

B6: BioPhoAC14 (peptide)
peptide: Biotin-MKQKKKLALLLLLCLLTPVTKA-NH2
SMILES: CSCC[C@H](NC(=O)CCCC[C@@H]1SC[C@@H]2NC(=O)N[C@@H]21)C(=O)N[C@@H](CCCCN)C(=O)N[C@@H](CCC(N)=O)C(=O)N[C@@H](CCCCN)C(=O)N[C@@H](CCCCN)C(=O)N[C@@H](CCCCN)C(=O)N[C@@H](CC(C)C)C(=O)N[C@@H](C)C(=O)N[C@@H](CC(C)C)C(=O)N[C@@H](CC(C)C)C(=O)N[C@@H](CC(C)C)C(=O)N[C@@H](CC(C)C)C(=O)N[C@@H](CC(C)C)C(=O)N[C@@H](CS)C(=O)N[C@@H](CC(C)C)C(=O)N[C@@H](CC(C)C)C(=O)N[C@H](C(=O)N1CCC[C@H]1C(=O)N[C@H](C(=O)N[C@H](C(=O)N[C@@H](CCCCN)C(=O)N[C@@H](C)C(N)=O)[C@@H](C)O)C(C)C)[C@@H](C)O
- binding result [4]: binds
